Measurements from patent US20220009959A1.

Assays:
[1] = target: CHO-K1 host cell proteins of mAb production clarified cell culture harvest (Chinese hamster (CHO-K1)); assay: static binding pH 7, 20 mM NaCl; HCP ELISA over Easy-Titer (reference: mAb m53)
[2] = target: monoclonal antibody product of the CHO-K1 production harvest; assay: static binding pH 6, 150 mM NaCl
[3] = target: CHO-K1 host cell proteins of mAb production clarified cell culture harvest (Chinese hamster (CHO-K1)); assay: static binding pH 6, 150 mM NaCl
[4] = target: low molecular weight HCPs (10 kDa<MW<150 kDa) of CHO-K1 IgG1 harvest (Chinese hamster (CHO-K1)); assay: flow-through, SEC; 1 min RT, 60 CV cut-off load
[5] = target: high molecular weight HCPs (MW>150 kDa) of CHO-K1 IgG1 harvest (Chinese hamster (CHO-K1)); assay: flow-through, SEC; 1 min RT, 60 CV cut-off load
[6] = target: high molecular weight HCPs (MW>150 kDa) of CHO-K1 IgG1 harvest (Chinese hamster (CHO-K1)); assay: flow-through, SEC; 10-30 CV load

| HCP targeted binding ratio (TBR; % HCP removed / % mAb removed) [1] | Kp (partition coefficient) [2] | Kp (partition coefficient) [3] | percent reduction in LMW % [4] [%] | percent reduction in HMW % [5] [%] | fold reduction in HMW species [6] [fold] | Substance |
| --- | --- | --- | --- | --- | --- | --- |
| 4.87 | 0.75 | 7.3 | – | – | – | 4MP-Toyopearl resin |
| – | 0.96 | 6.1 | – | – | – | 6HP-Toyopearl resin |
| – | – | – | 36 | 50 | 2 to 4 | 6HP/4MP-Toyopearl resin |
